Consider one molecule from paper PMC8017925, “Structural basis for differential recognition of phosphohistidine-containing peptides by 1-pHis and 3-pHis monoclonal antibodies” (Proceedings of the National Academy of Sciences of the …, 2021).

The target of the experiment is ACLYana-3-pTza peptide (AGAG-3-pTza-AGAG). Put plainly: BLI binding kinetics of 3-pHis Fabs with cognate pTza peptide. On the procedure:
Biolayer interferometry (BLI) studies were performed to determine the relative affinity of pHis Fabs to in situ phosphorylated His peptides versus the phosphomimetic substrates. The N-terminally biotinylated peptides were immobilized on streptavidin biosensors and the rate of association (ka) and dissociation (kd) were determined by varying the pHis Fab concentration. Equilibrium dissociation constants (KD) were determined by fitting the experimental data to a 1:1 Langmuir binding model. ACLYana-1-pTza and ACLYana-3-pTza peptides were used to determine affinity to 1-pHis and 3-pHis Fabs, respectively (Fig. 3 A–E and Table 1). […] The two isomers were separated from each other by passing the reaction through affinity columns containing 1-pHis mAbs using SC1-1 or SC50-3 IgGs or 3-pHis mAbs using SC39-4, SC44-8, and SC56-2 IgGs. The eluates thus contained either predominantly 1-pHis or 3-pHis peptides. These peptides were used to determine the affinity to their respective isomer class of pHis Fabs (Fig. 3 F–J, Table 1, and SI Appendix, Fig. S5). […] This experimental observation is well supported by the higher number of hydrogen bonds that support the SC44-8:3-pTza interaction compared to other pHis Fabs (SI Appendix, Table S5). […] There are at least three reasons for the lower affinity of the mAbs for pHis peptides compared to pTza peptides: The continuous hydrolysis of phosphate from the pHis peptides during the course of the experiment (SI Appendix, Fig. S6), a reduction in the number of hydrogen bond interactions due to one less nitrogen in the imidazole ring compared to triazolyl ring (Fig. 4 and SI Appendix, Fig. S8), and inherently different electronic properties of the imidazole and triazolyl rings in His and Tza, respectively ([20]).
Fig. 3. Binding kinetics of pHis Fabs with cognate pTza and pHis peptides. BLI studies of immobilized peptides (ACLYana-1/3-pTza and phosphorylated ACLYana) with varying concentrations of the pHis Fabs were carried out in triplicate on an Octet Red96e instrument (FortéBio). SC1-1 (A) and SC50-3 (B) pHis Fab interaction with their ACLYana-1-pTza peptides. SC39-4 (C), SC44-8 (D), and SC56-2 (E) pHis Fabs interactions with ACLYana-3-pTza peptides. SC1-1 (F), SC50-3 (G), SC39-4 (H), SC44-8 (I), and SC56-2 (J) pHis Fabs interactions with their affinity-purified ACLYana-pHis peptides are represented, Right. The experimental data are represented in the black dashed lines and the nonlinear least-squares fitting was represented in the red continuous lines. The χ^2 for the goodness of fit is under 1.0 for the all the plots.
The binding kinetics of pHis Fabs with the peptides (pTza and pHis) were evaluated with an Octet RED96e (FortéBio). Streptavidin-coated biosensors (FortéBio) were presoaked in buffer containing 50 mM Hepes pH 8.0, 150 mM NaCl, 0.05% Tween-20, and 0.2% BSA for 15 min. The biotinylated pTza peptides or pHis peptides (20 nM) with and without phosphoramidate treatment were coated onto these streptavidin biosensors and analyzed for their binding to varying concentrations of the pHis Fabs with an association time of 120 s and dissociation time of 200 s. The entire set of experiments was repeated three times. The data were analyzed using the Octet software (FortéBio) and the rates of association and dissociation were obtained by global fitting data to the 1:1 Langmuir interaction model.
A general note: In BLI a coated tip is dipped into the sample, and binding shifts an interference pattern.

Setting [1] is: BLI, immobilized biotinylated ACLYana-3-pTza, 1:1 Langmuir global fit, triplicate.

B1: SC44-8: Fab of rabbit 3-pHis-specific monoclonal antibody with proclivity for GpHAGA motif (antibody, V domains shown)
VH: QSVKESGRGLVQPGGSLTLTCTASGFSIDSYGFSWVRQAPGKGLEHIGYLTAGGRAFYASWAKSRSTITRNTNENTVTLKMTSLTAADTATYFCAKLGSGNPVAIWGPGTLVTVSS
VL: QVLTQTPSFTSAAVGGTVTINCQSSQSVWRNKNLAWYQQKPGQPPKRLIYAIATLDSGVPSRFSGSGSGTQFTLTISDVQCDDAATYYCVGHYGSENDAYYAFGGGTEVVVK
For the molecule B1, the Kd (as a rule, a measure of binding affinity in units of concentration) (BLI Octet RED96e, N-terminally biotinylated peptide (20 nM) on streptavidin biosensors, varying Fab concentration, 50 mM Hepes pH 8.0, 150 mM NaCl, 0.05% Tween-20, 0.2% BSA, association 120 s, dissociation 200 s, global fit 1:1 Langmuir, triplicate) was determined as 0.235 nM. Besides, the “dissociation rate, times slower than the other pHis Fabs” value (BLI, 3-pTza peptide) came to 70 times. Further, under setting [1], the ka came to 156000 ± 457 M⁻¹ s⁻¹ and the kd is 3.66e-05 ± 7.5e-07 s⁻¹.
